# Source: patent US12291504B2, “Small molecule inhibition of sulfotransferase SULT1A3” (University of Pittsburgh—Of the Commonwealth System of …, priority 2018, dated 2025)
# Tested on: Oc1ccc2ccc3cccc4ccc1c2c34
# Assay: purified protein, by the assay type
# Details: saturating PAPS (500 μM), 25.0 °C
# Description: Covalent Tagging of SULT1A3 Cys Constructs. Labeling of the SULT1A3 Cys constructs was performed as described previously (17,18,21). Briefly, 3-maleimido-PROXYL (spin label) or N-cyclohexylmaleimide (diamagnetic control) was added to an enzyme containing solution at 20-fold excess over reactive Cys. Unreacted Cys was monitored using DNTB (17,18,21); reactions were considered complete when >98% of the Cys was labeled. Reaction conditions: SULT1A3 (50 μM, monomer), 3-maleimido-PROXYL or N-cyclohexylmaleimide (1.0 mM), PAP (0.50 mM), KPO4 (50 mM), pH 7.5, 4±2° C. To prepare samples for NMR, reaction mixtures were dialyzed three times against 40 volumes of PAP (0.50 mM), KPO4 (50 mM), pD 7.4, D2O (>95%), 4±2° C.
# Initial-Rate Studies. Initial-rate parameters for the labeled or mutant SULT1A3 constructs were determined using a previously described 1-HP assay (25). […] Reactions were monitored via fluorescence change associated with the conversion of 1-HP to 1-HP-S (λex=325 nm, λem=370 nm). Keq for the 1-HP sulfonation reaction is −250. Given the reaction conditions outlined above, ≥99% of 1-HP is converted to 1-HP-S, and ˜0.4% of PAPS is converted to PAP at equilibrium. […] Reaction progress curves were analyzed to obtain initial-rate parameters as described previously (26,27).
# Inhibition studies. Inhibition parameters were determined under conditions identical to those described above (see, Initial-Rate Studies) except that [1-HP] was increased to 5.0 μM (˜61×Km) and inhibitor concentration was varied between 0.20-20×Ki. Ki was obtained using a least-squares fit to the following partial inhibition equation (25,28): v=kcat·(Ki+(1/kcat inh)·[I])/(Ki+[I]), where kcat inh is enzyme turnover at saturating substrates and allosteric inhibitor.
substance,measurement,setting,value
SULT1A3 spin-labeled at Cys 116 (Homo sapiens; Q116C),Km,other: spin label at Cys 116,87 (3) nM
same,kcat,other: spin label at Cys 116,1.83 s⁻¹
SULT1A3 spin-labeled at Cys 198 (Homo sapiens; E198C),Km,other: spin label at Cys 198,88 (2) nM
same,kcat,other: spin label at Cys 198,1.8 s⁻¹
SULT1A3 spin-labeled at Cys 234 (Homo sapiens; K234C),Km,other: spin label at Cys 234,84 (3) nM
same,kcat,other: spin label at Cys 234,1.82 s⁻¹
